Test results: PMC11046469, “Leveraging a Phage-Encoded Noncanonical Amino Acid: A Novel Pathway to Potent and Selective Epigenetic Reader Protein Inhibitors” (ACS Central Science, 2024)

Each substance was assayed against T1, ENL YEATS domain (AviSUMO-ENL YEATS) (Homo sapiens, UniProt Q03111) (assay: Phage panning of BuK-containing 7-mer library against AviSUMO-ENL YEATS with Illumina NGS abundance). Details: sheet ENLR3: round 3 of panning against ENL YEATS; TAG = amber codon (BuK); 7-mer library positions V1-V7.
T1 construct: encoding ENL YEATS (aa 1−148) was cloned in pET28a-; made in house; host or cells: E. coli BL21(DE3pLysS), co-expressed with BirA (pBirAcm)
T1 sequence (Q03111 1-148): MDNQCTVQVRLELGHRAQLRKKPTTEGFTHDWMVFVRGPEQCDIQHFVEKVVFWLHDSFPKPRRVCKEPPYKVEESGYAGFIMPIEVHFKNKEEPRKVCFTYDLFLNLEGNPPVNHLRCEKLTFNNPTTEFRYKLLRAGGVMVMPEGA
Text: We utilized a previously established amber-obligate 7-mer phage display library to develop a phage display library enriched with BuK-containing 7-mer peptides. For detailed characterizations, including analysis of amber codon percentages, NNK trinucleotide analysis, and amino acid distribution at each position within the library, please refer to the work of Tharp et al.[10] Furthermore, the comprehensive raw NGS data for the amber-obligate 7-mer phage library can be found in the NCBI’s Sequence Read Archive, under the accession ID PRJNA606283. To produce the BuK-containing 7-mer phage library, the phages were produced in the presence of 5 mM BuK using TOP10 cells harboring the following three plasmids: (1) pADL-gIII, which contains the 7-mer amber-obligate peptide-coding DNA library positioned at the N-terminus of M13 pIII gene; (2) pCDF-BuKRS, which encodes BuKRS and its cognate tRNA^Pyl for the genetic incorporation of BuK at amber codons in the 7-mer library; and (3) M13KO7TAA, a helper phage plasmid engineered to have a TAA mutation at pIII so that its lack of a functional pIII allows an efficient multivalent display of the 7-mer library. The ENL YEATS domain containing an N-terminal AviSUMO-Tag was recombinantly expressed in E. coli together with BirA, a biotin ligase, for site-specific biotinylation at the AviTag. The biotinylated AviSUMO-ENL YEATS was immobilized on streptavidin-coated magnetic beads for panning with the BuK-containing phages. […] Phage libraries collected from the first and third rounds of selection were sequenced using Illumina next generation sequencing (NGS) and all sequenced data are available through the NCBI SRA database (Project PRJNA1041845). To prevent possible sequencing errors from affecting conclusions, sequences were filtered using previously published paired-end processing,[10] where any sequences containing more than one mismatch in the nonlibrary region or any mismatch in the library region were discarded. The NGS data provided DNA sequences encompassing both the library and nonlibrary regions. In our analysis, we included data from the nonlibrary region as a stringent quality control measure to filter out low-quality data. For our analysis, we utilized 51 nucleotides from the NGS output, with 21 nucleotides encoding the library region and an additional 30 nucleotides for the nonlibrary region. […] Among all the sequences, only 85 of them contained more than 100 copies (blue area), while the remaining sequences all had low abundances (<10^2 copies, dark and light gray areas), which constituted 85.2% of the first round population. After three panning rounds, the selection converged to two highly enriched sequences: YDVYCYX (ENL-S1) and WWIIEXG (ENL-S2, X denotes BuK). Out of 551 different unique sequences collected from the third round, ENL-S1 and ENL-S2 represented 85% of the entire library (Figure 2A and Figures S6–S8). Both peptide sequences corresponded to their own unique DNA sequence, rather than there being varying codons encoding the same amino acids (Figure S7). […] Two motifs were found in the majority of sequences with high abundance (greater than 0.1%) (Figure S6). A Y(C/L)Y pattern was identified in the residues adjacent to BuK in four of the eight top sequences. Also, an H(L/Y)(T/V)LFXG (X denotes BuK) motif was observed, albeit at lower abundances, in two of the top sequences. In the initial round of selection, we observed that only a small percentage of phages were eluted, which aligns with typical outcomes in phage selection experiments since only a low copy number of phages can bind to the target.[10],[45] With each successive round of selection, we noted a gradual increase in the percentage of phages eluted. This incremental, rather than sharp, increase was attributed to the intensification of selection pressures, such as the application of more stringent washing protocols. We aimed for the incremental increase to retain potent clones with low copy numbers from the previous selection cycle. […]

Substance	n (number of NGS reads of the unique amino acid sequence)	percent (share of sequence reads) [%]
WWIIEWG	3	0.002732
QCCPRTAGD	10	0.009106
WTAGIIETAGG	4	0.003642
SVIYCYTAG	9	0.008196
SCPPRTAGD	10	0.009106
WWIIEYG	29	0.02641
DMFRSTAGI	1	0.0009106
WWIIETAGW	27	0.02459
LYGSTAGDC	1	0.0009106
YDVYCFTAG	2	0.001821
WWIIDTAGG	29	0.02641
QCGSRTAGD	3	0.002732
WWIIVTAGG	4	0.003642
CLPWTAGSS	7	0.006374
IHVYCTAGV	1	0.0009106
TAGVMSLYS	2	0.001821

Substance	n (number of NGS reads of the unique amino acid sequence)	percent (share of sequence reads) [%]
YLYTAGVPC	1006	0.9161
KVTAGGGGV	1	0.0009106
CYDLCTAGG	21	0.01912
HVIYCYTAG	2	0.001821
WWVIETAGG	4	0.003642
WWIIETAGG	33339	30.359
WWIIEKG	2	0.001821
YDVYCYQ	15	0.01366
FEISEWTAG	2	0.001821
LLWTAGLAS	1	0.0009106
MTAGGLRHS	1	0.0009106
SLMMCQTAG	2	0.001821
KMPFTAGIS	1	0.0009106
WWIITAGTAGG	19	0.0173
SMHACTAGT	2	0.001821
QCVPRTAGD	5	0.004553

Same assay, conditions: sheet ENLR3: round 3 of selection against ENL YEATS; TAG = amber codon (BuK)

Substance	n (number of NGS reads of the 7-mer sequence V1-V7)	percent (share of NGS reads of the 7-mer sequence V1-V7) [%]
TAGGSWVPI	1	0.0009106
QCDPRTAGD	1	0.0009106
QWGPRTAGD	1	0.0009106
RTVYCHTAG	1	0.0009106
YVGPLTAGG	1	0.0009106
YDVYCSTAG	1	0.0009106
WCFMVFL	1	0.0009106
TAGTYYVCR	1	0.0009106
STTAGKLFI	1	0.0009106
RLTLFTAGG	1	0.0009106
YPCVCFTAG	1	0.0009106
TAGMVHIMV	1	0.0009106
SWSITFTAG	1	0.0009106
QCGPRTAGG	1	0.0009106
TAGCGPRYD	1	0.0009106
YLYTAGVHC	1	0.0009106
YLYLVPC	1	0.0009106
QTAGERNAC	1	0.0009106
STAGTEIYC	1	0.0009106
YLDDTAGLH	1	0.0009106
RWVAGPTAG	1	0.0009106
RTAGTESQL	1	0.0009106
